doi:10.1101/2025.02.03.636245

Target: OdinSepF (Candidatus Odinarchaeota)
Test: SEC-MALS

Substance: OdinSepF (natural protein)
- stoichiometry N: 2
